Reference: IntAct's records for PubMed 31515488

B1: Rhophilin-1 (Homo sapiens), Q8TCX5 (parent)
chain: MILEERPDGAGAGEESPRLQGCDSLTQIQCGQLQSRRAQIHQQIDKELQMRTGAENLYRATSNNRVRETVALELSYVNSNLQLLKEELEELSGGVDPGRHGSEAVTVPMIPLGLKETKELDWSTPLKELISVHFGEDGASYEAEIRELEALRQAMRTPSRNESGLELLTAYYNQLCFLDARFLTPARSLGLFFHWYDSLTGVPAQQRALAFEKGSVLFNIGALHTQIGARQDRSCTEGARRAMEAFQRAAGAFSLLRENFSHAPSPDMSAASLCALEQLMMAQAQECVFEGLSPPASMAPQDCLAQLRLAQEAAQVAAEYRLVHRTMAQPPVHDYVPVSWTALVHVKAEYFRSLAHYHVAMALCDGSPATEGELPTHEQVFLQPPTSSKPRGPVLPQELEERRQLGKAHLKRAILGQEEALRLHALCRVLREVDLLRAVISQTLQRSLAKYAELDREDDFCEAAEAPDIQPKTHQKPEARMPRLSQGKGPDIFHRLGPLSVFSAKNRWRLVGPVHLTRGEGGFGLTLRGDSPVLIAAVIPGSQAAAAGLKEGDYIVSVNGQPCRWWRHAEVVTELKAAGEAGASLQVVSLLPSSRLPSLGDRRPVLLGPRGLLRSQREHGCKTPASTWASPRPLLNWSRKAQQGKTGGCPQPCAPVKPAPPSSLKHPGWP
B2: Ubiquitin-conjugating enzyme E2 E3 (Homo sapiens), Q969T4 (parent)
chain: MSSDRQRSDDESPSTSSGSSDADQRDPAAPEPEEQEERKPSATQQKKNTKLSSKTTAKLSTSAKRIQKELAEITLDPPPNCSAGPKGDNIYEWRSTILGPPGSVYEGGVFFLDITFSSDYPFKPPKVTFRTRIYHCNINSQGVICLDILKDNWSPALTISKVLLSICSLLTDCNPADPLVGSIATQYLTNRAEHDRIARQWTKRYAT
partner: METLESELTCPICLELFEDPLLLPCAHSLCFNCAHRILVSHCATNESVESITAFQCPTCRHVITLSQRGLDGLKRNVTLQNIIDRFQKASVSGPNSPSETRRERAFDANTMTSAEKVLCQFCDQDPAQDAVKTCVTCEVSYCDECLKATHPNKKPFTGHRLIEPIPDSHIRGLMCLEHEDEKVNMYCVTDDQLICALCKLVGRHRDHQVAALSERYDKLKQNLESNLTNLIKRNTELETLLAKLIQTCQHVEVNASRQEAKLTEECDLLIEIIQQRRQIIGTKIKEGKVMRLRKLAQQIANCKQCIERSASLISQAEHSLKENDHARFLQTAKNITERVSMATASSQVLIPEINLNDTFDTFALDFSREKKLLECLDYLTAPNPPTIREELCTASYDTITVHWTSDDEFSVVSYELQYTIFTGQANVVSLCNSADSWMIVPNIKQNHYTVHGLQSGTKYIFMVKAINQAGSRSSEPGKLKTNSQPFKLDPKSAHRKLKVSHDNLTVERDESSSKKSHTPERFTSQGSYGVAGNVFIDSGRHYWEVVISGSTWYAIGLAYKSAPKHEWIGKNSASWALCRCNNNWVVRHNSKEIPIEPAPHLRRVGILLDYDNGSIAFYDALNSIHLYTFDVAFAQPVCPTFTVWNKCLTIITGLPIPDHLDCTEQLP
B3: Syntenin-2 (Homo sapiens), Q9H190 (parent)
chain: MSSLYPSLEDLKVDQAIQAQVRASPKMPALPVQATAISPPPVLYPNLAELENYMGLSLSSQEVQESLLQIPEGDSTAVSGPGPGQMVAPVTGYSLGVRRAEIKPGVREIHLCKDERGKTGLRLRKVDQGLFVQLVQANTPASLVGLRFGDQLLQIDGRDCAGWSSHKAHQVVKKASGDKIVVVVRDRPFQRTVTMHKDSMGHVGFVIKKGKIVSLVKGSSAARNGLLTNHYVCEVDGQNVIGLKDKKIMEILATAGNVVTLTIIPSVIYEHMVKKLPPVLLHHTMDHSIPDA
partner: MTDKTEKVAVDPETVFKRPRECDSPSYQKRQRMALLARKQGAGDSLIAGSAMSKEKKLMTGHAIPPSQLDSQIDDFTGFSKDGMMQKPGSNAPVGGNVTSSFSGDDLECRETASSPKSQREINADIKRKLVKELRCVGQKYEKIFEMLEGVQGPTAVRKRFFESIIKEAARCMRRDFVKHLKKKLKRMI
B4: Protein LDOC1 (Homo sapiens), O95751 (parent)
chain: MVDELVLLLHALLMRHRALSIENSQLMEQLRLLVCERASLLRQVRPPSCPVPFPETFNGESSRLPEFIVQTASYMLVNENRFCNDAMKVAFLISLLTGEAEEWVVPYIEMDSPILGDYRAFLDEMKQCFGWDDDEDDDDEEEEDDY
partner: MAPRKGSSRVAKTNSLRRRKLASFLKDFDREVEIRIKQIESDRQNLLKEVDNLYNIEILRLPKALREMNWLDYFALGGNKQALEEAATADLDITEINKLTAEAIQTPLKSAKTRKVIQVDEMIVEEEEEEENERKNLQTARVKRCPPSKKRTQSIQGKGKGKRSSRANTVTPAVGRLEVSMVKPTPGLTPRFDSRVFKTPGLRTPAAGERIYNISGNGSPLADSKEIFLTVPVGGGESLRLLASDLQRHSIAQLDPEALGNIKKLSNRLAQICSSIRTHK
B5: Alpha-taxilin (Homo sapiens), P40222 (parent)
chain: MKNQDKKNGAAKQSNPKSSPGQPEAGPEGAQERPSQAAPAVEAEGPGSSQAPRKPEGAQARTAQSGALRDVSEELSRQLEDILSTYCVDNNQGGPGEDGAQGEPAEPEDAEKSRTYVARNGEPEPTPVVNGEKEPSKGDPNTEEIRQSDEVGDRDHRRPQEKKKAKGLGKEITLLMQTLNTLSTPEEKLAALCKKYAELLEEHRNSQKQMKLLQKKQSQLVQEKDHLRGEHSKAVLARSKLESLCRELQRHNRSLKEEGVQRAREEEEKRKEVTSHFQVTLNDIQLQMEQHNERNSKLRQENMELAERLKKLIEQYELREEHIDKVFKHKDLQQQLVDAKLQQAQEMLKEAEERHQREKDFLLKEAVESQRMCELMKQQETHLKQQLALYTEKFEEFQNTLSKSSEVFTTFKQEMEKMTKKIKKLEKETTMYRSRWESSNKALLEMAEEKTVRDKELEGLQVKIQRLEKLCRALQTERNDLNKRVQDLSAGGQGSLTDSGPERRPEGPGAQAPSSPRVTEAPCYPGAPSTEASGQTGPQEPTSARA
partner: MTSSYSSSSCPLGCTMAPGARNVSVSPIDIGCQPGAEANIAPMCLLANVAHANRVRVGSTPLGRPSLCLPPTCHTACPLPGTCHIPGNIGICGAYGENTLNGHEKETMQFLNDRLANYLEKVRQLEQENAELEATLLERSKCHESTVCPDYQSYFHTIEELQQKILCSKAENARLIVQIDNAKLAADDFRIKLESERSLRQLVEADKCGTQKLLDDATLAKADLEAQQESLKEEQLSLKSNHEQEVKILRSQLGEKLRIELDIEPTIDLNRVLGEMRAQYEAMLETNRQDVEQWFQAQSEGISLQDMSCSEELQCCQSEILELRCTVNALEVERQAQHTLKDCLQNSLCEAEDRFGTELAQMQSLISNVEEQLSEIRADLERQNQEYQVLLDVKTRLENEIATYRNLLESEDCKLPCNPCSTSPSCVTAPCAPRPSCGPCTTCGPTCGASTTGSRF
B6: Isoform 1 of Aminoacylase-1 (Homo sapiens), Q03154-1 (parent)
chain: MTSKGPEEEHPSVTLFRQYLRIRTVQPKPDYGAAVAFFEETARQLGLGCQKVEVAPGYVVTVLTWPGTNPTLSSILLNSHTDVVPVFKEHWSHDPFEAFKDSEGYIYARGAQDMKCVSIQYLEAVRRLKVEGHRFPRTIHMTFVPDEEVGGHQGMELFVQRPEFHALRAGFALDEGIANPTDAFTVFYSERSPWWVRVTSTGRPGHASRFMEDTAAEKLHKVVNSILAFREKEWQRLQSNPHLKEGSVTSVNLTKLEGGVAYNVIPATMSASFDFRVAPDVDFKAFEEQLQSWCQAAGEGVTLEFAQKWMHPQVTPTDDSNPWWAAFSRVCKDMNLTLEPEIMPAATDNRYIRAVGVPALGFSPMNRTPVLLHDHDERLHEAVFLRGVDIYTRLLPALASVPALPSDS
partner: B6 chain
B7: Alpha-taxilin (Homo sapiens), P40222 (parent)
chain: B5 chain
partner: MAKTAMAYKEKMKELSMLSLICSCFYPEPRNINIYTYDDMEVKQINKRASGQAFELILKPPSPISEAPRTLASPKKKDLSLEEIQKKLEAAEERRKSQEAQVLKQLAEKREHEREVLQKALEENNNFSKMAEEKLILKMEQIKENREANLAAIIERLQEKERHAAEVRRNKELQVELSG

Variants of: B1
Conditions: with mtus2_human MTUS2, Q5JR59
Sequence of mtus2_human MTUS2, Q5JR59 (Q5JR59 whole entry): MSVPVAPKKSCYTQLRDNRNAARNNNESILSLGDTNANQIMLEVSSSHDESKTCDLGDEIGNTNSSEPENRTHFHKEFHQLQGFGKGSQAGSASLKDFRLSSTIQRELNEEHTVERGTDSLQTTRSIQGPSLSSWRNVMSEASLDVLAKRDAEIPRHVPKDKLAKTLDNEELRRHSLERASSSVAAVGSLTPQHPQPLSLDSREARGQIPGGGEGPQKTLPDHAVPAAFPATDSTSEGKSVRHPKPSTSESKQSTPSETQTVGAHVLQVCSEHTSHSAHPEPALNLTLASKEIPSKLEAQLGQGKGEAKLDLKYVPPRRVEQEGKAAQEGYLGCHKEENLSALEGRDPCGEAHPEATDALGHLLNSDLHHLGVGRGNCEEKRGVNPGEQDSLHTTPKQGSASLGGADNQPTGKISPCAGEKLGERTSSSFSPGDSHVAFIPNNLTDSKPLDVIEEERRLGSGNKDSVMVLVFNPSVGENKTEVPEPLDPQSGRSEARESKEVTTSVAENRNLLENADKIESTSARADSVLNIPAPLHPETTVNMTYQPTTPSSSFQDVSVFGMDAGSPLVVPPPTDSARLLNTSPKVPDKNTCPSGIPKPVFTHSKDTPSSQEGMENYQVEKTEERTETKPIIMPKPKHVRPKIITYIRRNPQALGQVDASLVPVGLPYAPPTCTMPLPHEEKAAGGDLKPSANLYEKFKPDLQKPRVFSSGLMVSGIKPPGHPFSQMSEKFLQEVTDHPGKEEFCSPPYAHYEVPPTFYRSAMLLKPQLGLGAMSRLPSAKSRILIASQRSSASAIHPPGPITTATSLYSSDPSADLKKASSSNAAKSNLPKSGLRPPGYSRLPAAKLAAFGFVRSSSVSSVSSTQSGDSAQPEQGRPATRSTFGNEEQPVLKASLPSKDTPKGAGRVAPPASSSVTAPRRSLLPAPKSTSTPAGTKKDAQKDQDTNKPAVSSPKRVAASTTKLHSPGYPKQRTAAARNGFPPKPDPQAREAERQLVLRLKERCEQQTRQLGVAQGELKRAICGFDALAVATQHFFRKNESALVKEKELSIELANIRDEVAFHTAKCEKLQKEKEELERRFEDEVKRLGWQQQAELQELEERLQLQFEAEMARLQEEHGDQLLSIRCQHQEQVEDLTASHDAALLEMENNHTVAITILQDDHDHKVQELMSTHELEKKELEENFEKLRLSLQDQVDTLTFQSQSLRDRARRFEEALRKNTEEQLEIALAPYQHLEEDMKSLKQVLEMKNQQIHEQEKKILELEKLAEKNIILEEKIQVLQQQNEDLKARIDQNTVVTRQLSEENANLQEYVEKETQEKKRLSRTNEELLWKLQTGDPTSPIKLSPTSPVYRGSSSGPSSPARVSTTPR

Row | Variant | effect of a mutation on the interaction
1 | A536T | with no effect

Variants of: B2
Conditions: with tri18_human MID1, O15344

Row | Variant | effect of a mutation on the interaction
2 | S117T | with no effect

Variants of: B3
Conditions: with ct457_human CT45A7, P0DMV0

Row | Variant | effect of a mutation on the interaction
3 | G225R | disrupting interaction strength
4 | V182M | disrupting interaction strength
5 | G242R | disrupting interaction strength

Variants of: B4
Conditions: with borea_human CDCA8, Q53HL2

Row | Variant | effect of a mutation on the interaction
6 | L12H | disrupting interaction strength

Variants of: B5
Conditions: with krt38_human KRT38, O76015

Row | Variant | effect of a mutation on the interaction
7 | P541S | with no effect
8 | S514R | with no effect
9 | R154G | disrupting interaction strength

Variants of: B6
Conditions: with acy1_human ACY1, Q03154

Row | Variant | effect of a mutation on the interaction
10 | E381D | with no effect

Variants of: B7
Conditions: with stmn2_human STMN2, Q93045

Row | Variant | effect of a mutation on the interaction
11 | S514R | with no effect
